From patent US20070065447A1 (Novo Nordisk, published 2007)
Bridge positions count the residues as written; N and C are the ends. Ends that are not written are not given here.

B1: mAb 6C12 (antibody, V domains shown)
VH: DVHLQESGPGLVKPSQSLSLTCTVTGYSITSDYAWNWIRQFPGNRLEWMGYITYSGGTNYNPSLKSRISFTRDTSKNQFFLQLNSVTTEDTATYYCANNFYGNFFDYWGQGTTLTVSS
VL: QIVLTQSPAIMSASPGEKVTMTCSASSSVSYIHWYQQKSGTSPKRWIYDTSKLASGVPARFSGSGSGTSYSLTISSMQAEDAATYYCQQWSSSPPTFGGGTKLEIK
notes: Murine anti-γ2 DIII monoclonal antibody from hybridoma 6C12, deposited at DSMZ as DSM ACC2653; Biotinylated in some ELISAs; also called monoclonal antibody 6C12; DSM ACC2653
B2: mAb 4G1 (antibody, V domains shown)
VH: EVKLEESGGGLVQPGGSMKLSCVASGFTFSNFWMNWVRQSPEKGLEWVAEIRLKSNNYATHYAESLKGRFTISRDDSKSNVYLQMNNLRPEDTGIYYCTRDYYGSSFAYWGQGTLVTVSA
VL: DIVMTQAAFSNPVTLGTSASISCRSSKSLLHNIGITYLFWYLQKPGQSPQLLIYQMSKLASGVPDRFSGSGSGTDFTLRISRVEAEDVGIYYCAQNLELPPTFGSGTKLEIK
notes: Murine anti-γ2 DIII monoclonal antibody from hybridoma 4G1 (available from DAKO Cytomation); Biotinylated in some ELISAs; also called monoclonal antibody 4G1; γ2 DIII mAb 4G1

Assays:
[1] = target: T1, GST-γ2III fusion protein (glutathione S-transferase:γ2 DIII fragment fusion protein, human laminin γ2 amino … (human)); assay: SPR (BIAcore, RAMFc chip, HBS-EP buffer), mAb against GST-γ2DIII fusion protein
T1 construct: also called GST-γ2DIII; GST-γ2 DIII
Method: Resulting reflection/refractive index data obtained from these analyses (at 200 nM, 500 nM, 200 nM, 50 nM, and 20 nM) are presented individually in FIGS. 19A-19C.

[2] = target: T2, BSA (bovine, UniProt P02769); assay: direct ELISA, fusion proteins coated at 100 ng/well, A405 (Example 3, second experiment)
T2 construct: also called bovine serum albumin
Method: (§1) The stepwise protocol set forth below was used for the ELISAs, which were performed with biotinylated mAb 4G1, mAb 5D5, and mAb 6C12 (GST, BSA, and plastic used as controls in the first experiment; GST and BSA only in the second experiment) and the γ2 DIII antigens individually (GST-γIII-20 was only tested in the second experiment; nonspecific biotinylated Ig was used as a control for the antibodies in both experiments). All incubations were performed at room temperature except step 1, below. 100 μl of reagents were used per well for incubations and 200 μl of PBST for washings unless otherwise mentioned. In addition, shaking the plate can be helpful for incubations.
(§2) ELISA plates were coated with 100 μl GST-γ2III chain fragments at concentration of 1 μg/ml in 0.1 M carbonate/bicarbonate buffer, pH 9, o/n at +4° C. (100 ng/well). The coated plates were washed three times with PBST. Non-specific binding was blocked with BSA-PBS incubation for 90 minutes (200 μl/well). Dilutions of reference standards, negative controls (quality controls), and sample were diluted in BSA-PBS and thereafter incubated for 1 h at room temperature. The plates were again washed three times with PBST. HRP-conjugated anti-mouse IgG secondary antibody was added to the wells (diluted 1:5000 in PBS) and allowed to incubate for 30 minutes. The plates were washed again three times with PBST. ABTS-peroxidase substrate was added. Substrates were prepared immediately before use: ABTS-stock (10×) was diluted with Citrate buffer (see Example 1); 2 μl of 30% hydrogen […] was added to each well and mixed. Substrate was added to the wells and incubated in dark conditions for 30 minutes. Absorbance was read with a microtitre plate reader at 405 nm after 30 min and after 60 min.

[3] = target: T3, cyclic peptide X252 (Ln-5 residues 394-415 + R) (human, Cys-Cys disulfide bond (cyclic peptide)); assay: direct ELISA, peptide coated at 50 µg/ml (controls 5 µg/ml), antibody 100 ng/well, A450/620, mean of three ± SD
T3 construct: Used unpurified
T3 peptide: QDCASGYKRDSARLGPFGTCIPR
Method: The identity of these peptides was verified by mass spectrometry. Solutions containing the five peptides, in an unpurified state, were individually subjected to direct ELISA analysis using standard techniques. Briefly, NUNC-IMMUNO plates were coated with 100 μl/well of 50 μg/ml peptide in carbonate buffer and allowed to sit overnight at +4° C. […] The plates were washed five times with PBS to remove unbound peptide and subjected to one hour blocking at room temperature by exposure with a washing/blocking buffer (0.05% Tween-20 in PBS (PBST)), which was thereafter removed. 100 ng of antibody (100 μl of solution containing an antibody solution at a concentration of 1 μg antibody/ml) for each of the three mAbs (4G1, 5D5, and 6C12) was added to the test wells. Dilution buffer was added to the control wells. […]
100 μl HRP-anti-mouse secondary Ab diluted in a dilution buffer at a ratio of 1:2000 was added to each well and the plates were incubated for one hour at room temperature, and thereafter washed 4 times with PBST. The plates were then developed with 100 μl TMB substrate for a period of 15-30 minutes in the dark (during which time the plates were monitored for color development). […] Absorbance measurements were taken at 450 nm and 620 nm, ratios of absorbance determined, and the data evaluated. […]

[4] = target: T4, cyclic peptide X253 (Ln-5 residues 425-444) (human, Cys-Cys disulfide bond (cyclic peptide)); assay: direct ELISA on coated cyclic peptides
T4 construct: Used unpurified
T4 peptide: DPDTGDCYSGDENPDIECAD
Method: (§3) The identity of these peptides was verified by mass spectrometry. Solutions containing the five peptides, in an unpurified state, were individually subjected to direct ELISA analysis using standard techniques. Briefly, NUNC-IMMUNO plates were coated with 100 μl/well of 50 μg/ml peptide in carbonate buffer and allowed to sit overnight at +4° C. […] The plates were washed five times with PBS to remove unbound peptide and subjected to one hour blocking at room temperature by exposure with a washing/blocking buffer (0.05% Tween-20 in PBS (PBST)), which was thereafter removed. 100 ng of antibody (100 μl of solution containing an antibody solution at a concentration of 1 μg antibody/ml) for each of the three mAbs (4G1, 5D5, and 6C12) was added to the test wells. Dilution buffer was added to the control wells. The plates were incubated at room temperature for one hour, and thereafter washed four times in PBST.
(§4) 100 μl HRP-anti-mouse secondary Ab diluted in a dilution buffer at a ratio of 1:2000 was added to each well and the plates were incubated for one hour at room temperature, and thereafter washed 4 times with PBST. The plates were then developed with 100 μl TMB substrate for a period of 15-30 minutes in the dark (during which time the plates were monitored for color development). At an appropriate time, the reaction was stopped in each well with the addition of 4M H3PO4. Absorbance measurements were taken at 450 nm and 620 nm, ratios of absorbance determined, and the data evaluated. These experiments were performed in triplicate.

[5] = target: T5, cyclic peptide X254 (Ln-5 residues 494-516, +E) (human, Cys-Cys disulfide bond (cyclic peptide)); assay: direct ELISA on coated cyclic peptides
T5 peptide: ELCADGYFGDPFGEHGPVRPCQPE
Method: as §3, §4

[6] = target: T6, cyclic peptide X255 (R+, Ln-5 residues 518-537) (human, Cys-Cys disulfide bond (cyclic peptide)); assay: direct ELISA on coated cyclic peptides
T6 peptide: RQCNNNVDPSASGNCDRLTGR
Method: as §3, §4

[7] = target: T7, cyclic peptide X256 (Ln-5 residues 539-552 + R) (human, disulfide 3-12 (inferred)); assay: direct ELISA on coated cyclic peptides
T7 peptide: LKCIHNTAGIYCDQR
Method: as §3, §4

[8] = target: T8, GST-γ2III-7 (a.a. residues 461-653) (human, UniProt Q13753 461-653); assay: direct ELISA, fusion proteins coated at 100 ng/well, A405 (Example 3, first experiment)
T8 construct: Recombinant GST-γ2III-chain fragment; not shown: glutathione S-transferase (GST) fusion partner
T8 sequence: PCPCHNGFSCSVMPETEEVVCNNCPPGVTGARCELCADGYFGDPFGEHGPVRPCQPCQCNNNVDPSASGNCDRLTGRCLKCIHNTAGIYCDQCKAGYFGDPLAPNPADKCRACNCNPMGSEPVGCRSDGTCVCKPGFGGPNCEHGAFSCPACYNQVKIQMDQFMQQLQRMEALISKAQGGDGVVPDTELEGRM
Method: as §1
ELISA plates were coated with 100 μl GST-γ2III chain fragments at concentration of 1 μg/ml in 0.1 M carbonate/bicarbonate buffer, pH 9, o/n at +4° C. (100 ng/well). The coated plates were washed three times with PBST. Non-specific binding was blocked with BSA-PBS incubation for 90 minutes (200 μl/well). Dilutions of reference standards, negative controls (quality controls), and sample were diluted in BSA-PBS and thereafter incubated for 1 h at room temperature. The plates were again washed three times with PBST. […] Absorbance was read with a microtitre plate reader at 405 nm after 30 min and after 60 min.

[9] = target: T9, GST-γ2III-20 (a.a. residues 461-534) (human, UniProt Q13753 461-534); assay: direct ELISA, fusion proteins coated at 100 ng/well, A405 (Example 3, second experiment)
T9 construct: Recombinant GST-γ2III-chain fragment, used in the second set of experiments only; also called GST-γIII-20; not shown: glutathione S-transferase (GST) fusion partner
T9 sequence: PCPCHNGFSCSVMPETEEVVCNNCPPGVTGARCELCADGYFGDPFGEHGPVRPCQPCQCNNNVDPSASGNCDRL
Method: as §1, §2

T1 sequence (chain, as listed by the source limits assumed): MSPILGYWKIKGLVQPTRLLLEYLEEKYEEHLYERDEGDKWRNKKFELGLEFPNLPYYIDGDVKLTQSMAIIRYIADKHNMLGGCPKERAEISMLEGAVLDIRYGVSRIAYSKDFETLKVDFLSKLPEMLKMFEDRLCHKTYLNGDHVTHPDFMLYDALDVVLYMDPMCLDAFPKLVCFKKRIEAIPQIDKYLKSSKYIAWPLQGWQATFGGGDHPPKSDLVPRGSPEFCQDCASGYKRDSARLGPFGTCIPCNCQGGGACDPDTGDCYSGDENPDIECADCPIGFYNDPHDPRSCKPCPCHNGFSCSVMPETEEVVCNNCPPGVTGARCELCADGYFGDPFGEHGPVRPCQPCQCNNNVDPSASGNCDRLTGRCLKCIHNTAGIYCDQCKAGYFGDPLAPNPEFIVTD
T2 sequence (P02769 25-607 limits assumed): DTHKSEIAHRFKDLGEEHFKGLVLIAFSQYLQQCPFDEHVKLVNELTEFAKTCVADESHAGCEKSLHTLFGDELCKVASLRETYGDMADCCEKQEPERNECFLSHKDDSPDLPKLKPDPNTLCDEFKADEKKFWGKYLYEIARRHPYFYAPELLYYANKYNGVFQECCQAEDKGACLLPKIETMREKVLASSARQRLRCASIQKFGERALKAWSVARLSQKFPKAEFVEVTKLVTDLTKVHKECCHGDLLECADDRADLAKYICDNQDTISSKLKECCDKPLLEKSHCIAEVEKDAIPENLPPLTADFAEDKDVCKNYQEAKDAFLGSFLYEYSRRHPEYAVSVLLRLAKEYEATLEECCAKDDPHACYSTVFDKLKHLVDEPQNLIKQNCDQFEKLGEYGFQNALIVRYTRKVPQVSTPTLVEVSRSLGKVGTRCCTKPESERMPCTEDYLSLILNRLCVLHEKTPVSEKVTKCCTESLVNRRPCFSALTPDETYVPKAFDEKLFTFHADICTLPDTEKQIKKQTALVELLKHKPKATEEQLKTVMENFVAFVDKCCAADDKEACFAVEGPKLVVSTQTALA

| Binder | Kd [1] [nM] | koff [1] [s⁻¹] | kon [1] [M⁻¹ s⁻¹] | binding result [2] | binding result [3] | binding result [4] | binding result [5] | binding result [6] | binding result [7] | binding result [8] | binding result [9] |
| --- | --- | --- | --- | --- | --- | --- | --- | --- | --- | --- | --- |
| B1 | 23.3 | 0.000387 | 16600 | no binding | no binding (tested: 1 µg/ml) |  |  |  |  |  |  |
| B2 | 11.4 | 0.000106 | 9280 | no binding |  | no binding | no binding | no binding | no binding | no binding | no binding |
